Source: patent publication US20060292689A1

Target: CCR-2 (human) (UniProt P41597)
Test: cell-based or functional assay

Chain of CCR-2 (human) (P41597 whole entry): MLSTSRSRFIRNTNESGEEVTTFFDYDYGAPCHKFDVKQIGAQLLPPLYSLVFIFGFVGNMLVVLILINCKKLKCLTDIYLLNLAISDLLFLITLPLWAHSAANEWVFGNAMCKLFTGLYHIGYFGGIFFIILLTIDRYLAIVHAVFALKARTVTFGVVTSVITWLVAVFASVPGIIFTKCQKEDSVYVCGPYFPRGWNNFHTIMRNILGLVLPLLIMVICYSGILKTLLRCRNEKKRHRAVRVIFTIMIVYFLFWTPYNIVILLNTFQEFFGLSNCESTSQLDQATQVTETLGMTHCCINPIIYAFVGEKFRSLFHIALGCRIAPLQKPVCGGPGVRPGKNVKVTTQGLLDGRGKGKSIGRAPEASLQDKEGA

MCP-1 (from UniProt P13500 24-99) (ligand)
mean fluorescence intensity of CaR expression on monocytes: 673 units
